Patent EP4806514A2 (Lepu Biopharma Co., Ltd., dated 2025)

B1: 69E3H11-z10 (antibody, V domains shown)
VH: QVQLVQSGAEVKKPGASVKVSCKASGYTFTTYWMHWVKQAPGQRLEWIGEIDPSDSYANYNQKFKGKATLTVDKSASTAYMELSSLRSEDTAVYYCALYYGYGDWGQGTTVTVSS
VL: EIVLTQSPDFQSVTPKEKVTITCSVSSSISSIHLHWYQQKPDQSPKLLIKRTSNLASGVPSRFSGSGSGTDFTLTINSLEAEDAATYYCQQGSNLPLTFGQGTRLEIK
notes: Humanized, human IgG1 constant region; also called 69E3H11 HU-VH1-3 / HU-VL1-0
B2: 29D2D7-z19 (antibody, V domains shown)
VH: QVQLVQSGAEVKKPGASVKVSCKASGYTFTDYDMHWVKQAPGQGLEWIGGFDPESAGTVYNLRFKDKATLTADKSTSTAYMELRSLRSEDTAVYYCARKGYYSVSSPFTYWGQGTLVTVSS
VL: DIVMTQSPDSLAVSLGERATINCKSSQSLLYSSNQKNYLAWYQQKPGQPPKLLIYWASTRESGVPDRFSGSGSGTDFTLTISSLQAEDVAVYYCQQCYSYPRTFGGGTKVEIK
notes: Humanized, human IgG1 constant region
B3: 61C7F12-z2 (antibody, V domains shown)
VH: EVQLVESGGGLVKPGGSLRLSCAASGFTFSSYAMSWVRQAPGKGLEWVSTINIGGSYTYYPDSVKGRFTISRDNAKNSLYLQMNSLRAEDTAVYYCARQEGRYWYFDVWGQGTTVTVSS
VL: DIQLTQSPSFLSASVGDRVTITCTASSSVSSSYLHWYQQKPGKAPKLWIYSTSNLASGVPSRFSGSGSGTEYTLTISSLQPEDFATYYCHQFHRSPYTFGGGTKVEIK
notes: Humanized, human IgG1 constant region; also called 61C7F12 HU-VH1-0 / HU-VL1-1
B4: 61C7F12-z4 (antibody, V domains shown)
VH: EVQLVESGGGLVKPGGSLRLSCAASGFTFSSYAMSWVRQAPGKGLEWVSTINIGGSYTYYPDSVKGRFTISRDNAKNSLYLQMNSLRAEDTAVYYCARQEGRYWYFDVWGQGTTVTVSS
VL: QIVLTQSPSFLSASVGDRVTITCTASSSVSSSYLHWYQQKPGKSPKLWIYSTSNLASGVPSRFSGSGSGTSYSLTISSLQPEDFATYYCHQFHRSPYTFGGGTKVEIK
notes: Humanized, human IgG1 constant region; also called 61C7F12 HU-VH1-0 / HU-VL1-3
B5: 61C7F12-z1 (antibody, V domains shown)
VH: EVQLVESGGGLVKPGGSLRLSCAASGFTFSSYAMSWVRQAPGKGLEWVSTINIGGSYTYYPDSVKGRFTISRDNAKNSLYLQMNSLRAEDTAVYYCARQEGRYWYFDVWGQGTTVTVSS
VL: DIQLTQSPSFLSASVGDRVTITCTASSSVSSSYLHWYQQKPGKAPKLLIYSTSNLASGVPSRFSGSGSGTEFTLTISSLQPEDFATYYCHQFHRSPYTFGGGTKVEIK
notes: Humanized, human IgG1 constant region; also called 61C7F12 HU-VH1-0 / HU-VL1-0
B6: 61C7F12-z7 (antibody, V domains shown)
VH: EVQLVESGGGLVKPGGSLRLSCAASGFTFSSYAMSWVRQAPGKGLEWVATINIGGSYTYYPDSVKGRFTISRDNAKNSLYLQMNSLRAEDTAVYYCARQEGRYWYFDVWGQGTTVTVSS
VL: DIVLTQSPSFLSASVGDRVTITCTASSSVSSSYLHWYQQKPGKSPKLWIYSTSNLASGVPSRFSGSGSGTEYSLTISSLQPEDFATYYCHQFHRSPYTFGGGTKVEIK
notes: Humanized, human IgG1 constant region; also called 61C7F12 HU-VH1-1 / HU-VL1-2
B7: 61C7F12-z6 (antibody, V domains shown)
VH: EVQLVESGGGLVKPGGSLRLSCAASGFTFSSYAMSWVRQAPGKGLEWVATINIGGSYTYYPDSVKGRFTISRDNAKNSLYLQMNSLRAEDTAVYYCARQEGRYWYFDVWGQGTTVTVSS
VL: DIQLTQSPSFLSASVGDRVTITCTASSSVSSSYLHWYQQKPGKAPKLWIYSTSNLASGVPSRFSGSGSGTEYTLTISSLQPEDFATYYCHQFHRSPYTFGGGTKVEIK
notes: Humanized, human IgG1 constant region; also called 61C7F12 HU-VH1-1 / HU-VL1-1
B8: 61C7F12-z5 (antibody, V domains shown)
VH: EVQLVESGGGLVKPGGSLRLSCAASGFTFSSYAMSWVRQAPGKGLEWVATINIGGSYTYYPDSVKGRFTISRDNAKNSLYLQMNSLRAEDTAVYYCARQEGRYWYFDVWGQGTTVTVSS
VL: DIQLTQSPSFLSASVGDRVTITCTASSSVSSSYLHWYQQKPGKAPKLLIYSTSNLASGVPSRFSGSGSGTEFTLTISSLQPEDFATYYCHQFHRSPYTFGGGTKVEIK
notes: Humanized, human IgG1 constant region; also called 61C7F12 HU-VH1-1 / HU-VL1-0
B9: 29H8D3-z17 (antibody, V domains shown)
VH: QVQLVQSGAEVKKPGASVKVSCKASGYTFTDHTIHWVRQAPGQGLEWMGYIYPRDGYTKYNEKFKDRVTMTTDTSTSTAYMELRSLRSDDTAVYYCARFYYGYWYFDVWGQGTTVTVSS
VL: DIVMTQSPLSLPVTPGEPASISCRSSKSLLRSNGNTYLYWFLQKPGQSPQVLIYRMSNLASGVPDRFSGSGSGTAFTLKISRVEAEDVGVYYCMQHLEYPFTFGQGTKLEIK
notes: as for B2
B10: 29H8D3-z22 (antibody, V domains shown)
VH: QVQLVQSGAEVKKPGASVKVSCKASGYTFTDHTIHWVRQAPGQGLEWIGYIYPRDGYTKYNEKFKDRATMTTDTSTSTAYMELRSLRSDDTAVYYCARFYYGYWYFDVWGQGTTVTVSS
VL: DIVMTQSPLSLPVTPGEPASISCRSSKSLLRSNGNTYLYWFLQKPGQSPQVLIYRMSNLASGVPDRFSGSGSGTAFTLKISRVEAEDVGVYYCMQHLEYPFTFGAGTKLEIK
notes: as for B2
B11: 29H8D3-z20 (antibody, V domains shown)
VH: QVQLVQSGAEVKKPGASVKVSCKASGYTFTDHTIHWMRQRPGQGLEWIGYIYPRDGYTKYNEKFKDRATLTADTSTSTAYMELRSLRSDDTAVYYCARFYYGYWYFDVWGQGTTVTVSS
VL: DIVMTQSPLSLPVTPGEPASISCRSSKSLLRSNGNTYLYWFLQKPGQSPQVLIYRMSNLASGVPDRFSGSGSGTAFTLKISRVEAEDVGVYYCMQHLEYPFTFGQGTKLEIK
notes: as for B2
B12: 29H8D3-z23 (antibody, V domains shown)
VH: QVQLVQSGAEVKKPGASVKVSCKASGYTFTDHTIHWMRQAPGQGLEWIGYIYPRDGYTKYNEKFKDRATMTTDTSTSTAYMELRSLRSDDTAVYYCARFYYGYWYFDVWGQGTTVTVSS
VL: DIVMTQSPLSLPVTPGEPASISCRSSKSLLRSNGNTYLYWFLQKPGQSPQVLIYRMSNLASGVPDRFSGSGSGTAFTLKISRVEAEDVGVYYCMQHLEYPFTFGAGTKLEIK
notes: as for B2
B13: 29H8D3-z18 (antibody, V domains shown)
VH: QVQLVQSGAEVKKPGASVKVSCKASGYTFTDHTIHWVRQAPGQGLEWIGYIYPRDGYTKYNEKFKDRATMTTDTSTSTAYMELRSLRSDDTAVYYCARFYYGYWYFDVWGQGTTVTVSS
VL: DIVMTQSPLSLPVTPGEPASISCRSSKSLLRSNGNTYLYWFLQKPGQSPQVLIYRMSNLASGVPDRFSGSGSGTAFTLKISRVEAEDVGVYYCMQHLEYPFTFGQGTKLEIK
notes: as for B2
B14: 29H8D3-z19 (antibody, V domains shown)
VH: QVQLVQSGAEVKKPGASVKVSCKASGYTFTDHTIHWMRQAPGQGLEWIGYIYPRDGYTKYNEKFKDRATMTTDTSTSTAYMELRSLRSDDTAVYYCARFYYGYWYFDVWGQGTTVTVSS
VL: DIVMTQSPLSLPVTPGEPASISCRSSKSLLRSNGNTYLYWFLQKPGQSPQVLIYRMSNLASGVPDRFSGSGSGTAFTLKISRVEAEDVGVYYCMQHLEYPFTFGQGTKLEIK
notes: as for B2
B15: 29H8D3-z21 (antibody, V domains shown)
VH: QVQLVQSGAEVKKPGASVKVSCKASGYTFTDHTIHWVRQAPGQGLEWMGYIYPRDGYTKYNEKFKDRVTMTTDTSTSTAYMELRSLRSDDTAVYYCARFYYGYWYFDVWGQGTTVTVSS
VL: DIVMTQSPLSLPVTPGEPASISCRSSKSLLRSNGNTYLYWFLQKPGQSPQVLIYRMSNLASGVPDRFSGSGSGTAFTLKISRVEAEDVGVYYCMQHLEYPFTFGAGTKLEIK
notes: as for B2

What follows are binders tested against T1, human CDH17, full length, expressed on cells (HEK293-hCDH17); AsPC-1, HCT-8, AGS, LoVo, KATO III, HT-29 tumor … (human, UniProt Q12864 23-832) (assay: flow cytometry, HEK293-hCDH17 cells).
T1 construct: also called human CDH17 expressed on tumor cells
T1 sequence: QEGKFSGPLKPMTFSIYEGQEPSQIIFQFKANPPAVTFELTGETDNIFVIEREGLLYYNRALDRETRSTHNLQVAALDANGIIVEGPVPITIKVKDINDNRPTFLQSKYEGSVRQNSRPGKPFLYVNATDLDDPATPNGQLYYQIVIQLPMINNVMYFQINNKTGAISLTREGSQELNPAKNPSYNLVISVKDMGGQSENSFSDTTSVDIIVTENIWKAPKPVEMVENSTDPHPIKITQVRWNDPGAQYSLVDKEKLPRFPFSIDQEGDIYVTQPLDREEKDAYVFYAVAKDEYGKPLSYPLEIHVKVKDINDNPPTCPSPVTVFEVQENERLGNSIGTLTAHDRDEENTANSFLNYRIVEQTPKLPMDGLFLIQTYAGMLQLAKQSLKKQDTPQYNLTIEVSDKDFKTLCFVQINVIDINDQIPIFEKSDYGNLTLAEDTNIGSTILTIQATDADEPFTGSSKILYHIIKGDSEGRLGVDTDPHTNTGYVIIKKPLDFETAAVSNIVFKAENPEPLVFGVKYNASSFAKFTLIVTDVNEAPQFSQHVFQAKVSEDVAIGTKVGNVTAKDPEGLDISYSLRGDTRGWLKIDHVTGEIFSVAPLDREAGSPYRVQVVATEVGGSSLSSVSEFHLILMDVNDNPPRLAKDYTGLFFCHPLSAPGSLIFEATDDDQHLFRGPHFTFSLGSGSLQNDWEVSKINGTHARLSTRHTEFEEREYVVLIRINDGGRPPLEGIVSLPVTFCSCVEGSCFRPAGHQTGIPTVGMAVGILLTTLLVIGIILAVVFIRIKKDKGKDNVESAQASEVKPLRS

Binding result, binds:
B1
B2
B3
B4
B5
B6
B7
B8

These binders were tested against T2, hCDH17-his (full length extracellular domain of human CDH17, Q23-M787, his tag at the C-terminal) (human, UniProt Q12864 23-787) (assay: SPR (Biacore 8K), antibody captured on Protein A chip, hCDH17-his injected).
T2 construct: Limits of the construct (UniProt Q12864, Q23-M787, C-terminal his tag); also called human CDH17-his protein; human CDH17 protein
T2 sequence: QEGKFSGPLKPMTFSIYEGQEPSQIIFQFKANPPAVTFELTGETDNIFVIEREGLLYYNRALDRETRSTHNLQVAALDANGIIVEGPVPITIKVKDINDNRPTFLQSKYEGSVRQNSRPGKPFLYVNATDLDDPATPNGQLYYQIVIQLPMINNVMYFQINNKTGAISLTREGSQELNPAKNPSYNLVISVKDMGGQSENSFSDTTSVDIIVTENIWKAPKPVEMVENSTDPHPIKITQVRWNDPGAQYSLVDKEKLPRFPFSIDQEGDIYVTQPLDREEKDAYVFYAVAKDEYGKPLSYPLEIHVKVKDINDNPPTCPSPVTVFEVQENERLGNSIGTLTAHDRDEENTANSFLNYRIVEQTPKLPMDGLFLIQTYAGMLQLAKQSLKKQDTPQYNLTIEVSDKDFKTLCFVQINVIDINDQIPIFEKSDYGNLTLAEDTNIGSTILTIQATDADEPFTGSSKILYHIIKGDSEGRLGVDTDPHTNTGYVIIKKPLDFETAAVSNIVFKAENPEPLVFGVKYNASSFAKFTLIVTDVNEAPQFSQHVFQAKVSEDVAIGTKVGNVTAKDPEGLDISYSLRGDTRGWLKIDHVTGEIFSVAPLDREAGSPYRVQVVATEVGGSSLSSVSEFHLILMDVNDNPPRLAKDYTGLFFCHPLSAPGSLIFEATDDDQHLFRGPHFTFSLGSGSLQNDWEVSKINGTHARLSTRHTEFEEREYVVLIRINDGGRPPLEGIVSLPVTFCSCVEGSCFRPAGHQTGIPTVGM

Binding result, binds:
B2
B9
B10
B11
B12
B13
B14
B15
B3
B5
